Changes are numbered by the printed parent chain.
T1: mouse cKIT ECD (Mus musculus, UniProt P05532)
T1 construct: 3.125-50 nM of cKIT receptor extracellular domains (ECD) were diluted in a 2-fold series
T1 sequence (P05532 25-527 limits assumed): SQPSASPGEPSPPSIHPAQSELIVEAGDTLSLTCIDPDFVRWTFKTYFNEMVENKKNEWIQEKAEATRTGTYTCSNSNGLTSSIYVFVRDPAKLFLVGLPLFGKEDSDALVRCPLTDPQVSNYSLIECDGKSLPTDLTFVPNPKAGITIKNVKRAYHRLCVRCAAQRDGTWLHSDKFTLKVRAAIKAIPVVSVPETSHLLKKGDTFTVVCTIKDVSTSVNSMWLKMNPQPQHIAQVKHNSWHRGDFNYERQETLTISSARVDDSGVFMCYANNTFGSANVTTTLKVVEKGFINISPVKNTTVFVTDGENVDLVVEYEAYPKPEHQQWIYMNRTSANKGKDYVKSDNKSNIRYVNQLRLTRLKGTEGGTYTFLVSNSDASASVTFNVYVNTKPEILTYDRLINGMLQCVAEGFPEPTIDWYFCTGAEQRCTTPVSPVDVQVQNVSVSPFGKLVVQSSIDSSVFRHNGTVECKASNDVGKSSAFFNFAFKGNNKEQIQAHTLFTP

B1: NEG026: anti-cKIT antibody of Table 1, VH SEQ ID NO 46, VL SEQ ID NO 55 (antibody, V domains shown)
VH: EVQLVESGGGLVQPGGSLRLSCAASGFTFSDYYMAWVRQAPGKGLEWVANINQNTGSTYYVDSVQGRFTISRDNAKNSLYLQMNSLRAEDTAVYYCARGDYYGTTYWYFDVWGQGTTVTVSS
VL: EIVMTQSPATLSLSPGERATLSCRASQDISNYLNWYQQKPGQAPRLLIYYTSRLQSGIPARFSGSGSGTDYTLTISSLEPEDFAVYYCQQGKKLWSFGGGTKVEIK
B2: NEG087: anti-cKIT antibody of Table 1, VH SEQ ID NO 118, VL SEQ ID NO 127 (antibody, V domains shown)
VH: B1 VH with N50S, V61L, Q65R
VL: DIQMTQSPSSLSASVGDRVTITCRASQSISSYLNWYQQKPGKAPKLLIYYTSRLQSGVPSRFSGSGSGTDFTLTISSLQPEDFATYYCQQGRRLWSFGGGTKVEIK
B3: NEG086: anti-cKIT antibody of Table 1, VH SEQ ID NO 100, VL SEQ ID NO 109 (antibody, V domains shown)
VH: B1 VH with N54I, T55A
VL: B2 VL
B4: NEG027: anti-cKIT antibody of Table 1, VH SEQ ID NO 64, VL SEQ ID NO 73 (antibody, V domains shown)
VH: B1 VH with N50S, V61L, Q65R
VL: B1 VL
B5: 9P3: hybridoma derived anti-cKIT antibody, VH SEQ ID NO.9, VL SEQ ID NO.18 (antibody, V domains shown)
VH: EVRLVESEGGLVQPRSSMKLSCTASGFTFSDYYMAWVRQVPEKGLEWVANINYDGSSTYYLDSLKSRFIISRDNAKNILYLQMSSLKSEDTATYYCARGDYYGTTYWYFDVWGTGTTVTVSS
VL: DIQMTQTTSSLSASLGDRVTISCRASQDISNYLNWYQQKPDGTVKLLIYYTSRLQSGVPSRFSGSGSGTDYSLTISNLEQEDIATYFCQQGKKLWSFGGGTKLEIKR

How the values were obtained:
GIST cell lines = conditions: Edris et al. 2013; cited from earlier work
Uke-1 cells = test: ADCC activity in vitro (Calcein release, NK3.3 effector cells); assay type: cell-based, human; conditions: Uke-1 target cells, NK3.3 effector cells 20 to 1, FIG. 17
Protocol: In brief, Uke-1 cells were stained with Calcein acetoxy-methyl ester (Calcein-AM; Sigma-Aldrich catalog #17783-5MG, St. Louis, Mo.), washed twice, pipetted into a 96-well microtiterplate (96 well, U-bottomed, clear plastic; Corning Costar, catalog #650 160, Tewksbury, Mass.) at a concentration of 5000 cells per well and pre-incubated for 10 min with a serial dilution of the above mentioned antibodies and proteins (from 50,000 to 0.003 μg per ml) before adding the effector NK3.3 cells for 1 hour in an effector to target ratio of 20 to 1. In order to calculate the antibody specific lysis of the target cells, a parallel incubation of target cells only without antibody or effector cells served as a baseline and negative control, whereas the positive control or maximal lysis or hundred percent specific lysis was determined by lysis of target cells only with a 1% Triton-X 100 solution. […] Following a co-incubation of target and effector cells, the microtiterplate was centrifuged and an aliquot of the supernatant fluid was transferred to another microtiterplate (96 well, flat-bottomed, black with clear bottom; (Corning Costar, catalog #3904, Tewksbury, Mass.) and the concentration of free Calcein in solution was determined with a fluorescence counter (Victor 3® multilabel counter, Perkin Elmer, Waltham, Mass.).

[1] = test system: HAMLX5343 systemic primary AML xenograft; conditions: mouse, in vivo, ip
Protocol: (§4) Female NSG mice were implanted systemically (via tail vein injection) with 5×10^6 cells in phosphate buffered saline.
(§5) Leukemic burden was measured by flow cytometry. Weekly, blood was collected from all study animals via the tail. […] The stained cells were analyzed on a FACS Canto flow cytometer (BD Biosciences) (FIG. 52A). Body weights were measured twice weekly (FIG. 52B).

[2] = test system: HAMLX5343 systemic primary AML xenograft; test: In vivo efficacy, HAMLX5343 systemic primary AML xenograft
Protocol: as §4, §5

mouse cKIT ECD = target: T1, mouse cKIT ECD; test: SPR (Biacore 2000) affinity measurement; assay type: binding; conditions: 25° C., antibody captured, ECD in solution
Protocol: (§1) Affinity of the antibodies to cKIT species orthologues and also to cKIT was determined using SPR technology using a Biacore® 2000 instrument (GE Healthcare, Pittsburgh, Pa.) and with CM5 sensor chips.
(§2) Briefly, HBS-P (0.01 M HEPES, pH 7.4, 0.15 M NaCl, 0.005% Surfactant P20) supplemented with 2% Odyssey® blocking buffer (Li-Cor Biosciences, Lincoln, Nebr.) was used as the running buffer for all the experiments. The immobilization level and analyte interactions were measured by response unit (RU). Pilot experiments were performed to test and confirm the feasibility of the immobilization of the anti-human Fc antibody (Catalog number BR100839, GE Healthcare, Pittsburgh, Pa.) and the capture of the test antibodies.
(§3) For kinetic measurements, the experiments were performed in which the antibodies were captured to the sensor chip surface via the immobilized anti-human Fc antibody and the ability of the cKIT proteins to bind in free solution was determined Briefly, 25 μg/ml of anti-human Fc antibody at pH 5 was immobilized on a CM5 sensor chip through amine coupling at flow rate of 5 μl/minute on all two flow cells to reach 10,500 RUs. 0.1-1 μg/ml of test antibodies were then injected at 10 μl/min for 1 minute. Captured levels of the antibodies were generally kept below 200 RUs. Subsequently, 3.125-50 nM of cKIT receptor extracellular domains (ECD) were diluted in a 2-fold series and injected at a flow rate of 40 μl/min for 3 min over both reference and test flow cells. Table of tested ECDs is listed below. Dissociation of the binding was followed for 10 min. After each injection cycle, the chip surface was regenerated with 3 M MgCl2 at 10 μl/min for 30 s.

rat cKIT ECD = test: SPR (Biacore 2000) affinity measurement; assay type: binding; conditions: 25° C., antibody captured, ECD in solution
Chain of rat cKIT ECD (as listed by the source): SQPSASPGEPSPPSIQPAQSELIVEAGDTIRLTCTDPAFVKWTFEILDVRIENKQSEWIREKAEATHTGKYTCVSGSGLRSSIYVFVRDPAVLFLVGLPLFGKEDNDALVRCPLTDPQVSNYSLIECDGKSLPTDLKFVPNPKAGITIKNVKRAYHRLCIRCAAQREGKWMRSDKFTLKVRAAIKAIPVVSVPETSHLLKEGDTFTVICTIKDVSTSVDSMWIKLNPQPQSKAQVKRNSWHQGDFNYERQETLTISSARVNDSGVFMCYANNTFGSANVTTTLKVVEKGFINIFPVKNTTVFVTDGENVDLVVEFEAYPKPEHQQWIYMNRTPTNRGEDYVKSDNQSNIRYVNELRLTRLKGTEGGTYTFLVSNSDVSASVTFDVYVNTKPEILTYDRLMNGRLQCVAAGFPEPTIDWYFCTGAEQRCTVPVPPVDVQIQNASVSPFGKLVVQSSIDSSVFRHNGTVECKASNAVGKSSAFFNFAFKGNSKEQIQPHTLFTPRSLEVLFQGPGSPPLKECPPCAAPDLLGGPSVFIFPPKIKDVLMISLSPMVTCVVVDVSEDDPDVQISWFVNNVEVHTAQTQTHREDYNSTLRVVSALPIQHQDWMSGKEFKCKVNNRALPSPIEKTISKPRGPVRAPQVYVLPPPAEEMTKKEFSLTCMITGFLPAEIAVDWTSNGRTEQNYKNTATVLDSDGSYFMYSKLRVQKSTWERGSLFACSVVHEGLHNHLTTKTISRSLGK
Protocol: as §1, §2, §3

SCF binding to cKIT = SCF binding to cKIT (Homo sapiens, UniProt P10721); test: Competition assays using ELISA and FACS, SCF binding to cKIT
Chain of SCF binding to cKIT (P10721 26-976): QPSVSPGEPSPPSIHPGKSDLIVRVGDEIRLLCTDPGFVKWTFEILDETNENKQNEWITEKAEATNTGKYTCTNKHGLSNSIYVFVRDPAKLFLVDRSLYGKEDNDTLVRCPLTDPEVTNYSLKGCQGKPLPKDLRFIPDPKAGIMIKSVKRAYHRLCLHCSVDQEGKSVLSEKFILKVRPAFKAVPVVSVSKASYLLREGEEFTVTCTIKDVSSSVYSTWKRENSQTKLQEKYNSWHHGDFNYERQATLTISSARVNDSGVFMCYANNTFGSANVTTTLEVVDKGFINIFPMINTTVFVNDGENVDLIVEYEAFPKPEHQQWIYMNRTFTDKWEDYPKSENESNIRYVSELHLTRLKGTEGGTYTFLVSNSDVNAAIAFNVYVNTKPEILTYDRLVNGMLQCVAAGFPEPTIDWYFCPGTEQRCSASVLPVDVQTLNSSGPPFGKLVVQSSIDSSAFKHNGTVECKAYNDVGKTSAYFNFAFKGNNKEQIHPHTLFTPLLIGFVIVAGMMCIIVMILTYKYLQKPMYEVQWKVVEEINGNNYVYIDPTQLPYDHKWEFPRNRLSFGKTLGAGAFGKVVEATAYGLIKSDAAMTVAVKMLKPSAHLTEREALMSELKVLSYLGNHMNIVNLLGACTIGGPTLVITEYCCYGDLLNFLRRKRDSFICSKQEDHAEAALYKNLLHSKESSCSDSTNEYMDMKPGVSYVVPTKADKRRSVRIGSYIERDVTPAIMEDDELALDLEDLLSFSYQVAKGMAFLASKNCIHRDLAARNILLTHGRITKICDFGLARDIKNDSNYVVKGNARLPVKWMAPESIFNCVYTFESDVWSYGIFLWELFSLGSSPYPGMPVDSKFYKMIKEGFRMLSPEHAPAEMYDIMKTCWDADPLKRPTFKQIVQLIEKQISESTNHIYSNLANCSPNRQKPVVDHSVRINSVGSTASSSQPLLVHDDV

[3] = test system: GIST T1 subcutaneous tumor xenograft; conditions: GIST T1, SCID-beige mice, single i.v. dose 10 mg/kg
Protocol: The anti-tumor activity of anti-cKIT ADCs was evaluated in several tumor xenograft models.

[4] = HAMLX5343, Day 71, 50 mg/kg Daily x 6 days, intraperitoneally

| Molecule | Affinity mouse cKIT (mouse cKIT ECD) | Affinity to rat cKIT (rat cKIT ECD) | further results |
| --- | --- | --- | --- |
| Cc1ccc(NC(=O)c2ccc(CN3CCN(C)CC3)cc2)cc1Nc1nccc(-c2cccnc2)n1 [Imatinib] |  |  | cell proliferation (GIST cell lines): significantly reduce proliferation of GIST cell lines |
| MabCampath [reference compound] |  |  | ADCC (Uke-1 cells): mediated ADCC killing of the target cells |
| Nc1ccn([C@@H]2O[C@H](CO)[C@@H](O)[C@@H]2O)c(=O)n1 [ARA-C, cytarabine, reference compound] |  |  | toxicity [1]: highly toxic; Mean change of body weight (from day 67) [2, 4]: 2.3 ± 2.3 % ± SEM; Mean change of tumor volume [2, 4]: −6.6 ± 2.1 % CD45 positive PBMC's ± SEM; Regression [2, 4]: −52.5%; antitumor activity (leukemic burden) ([2]; HAMLX5343, intraperitoneally daily for 6 days): efficacious in three of the animals; bodyweight loss ([2]; HAMLX5343, intraperitoneally daily for 6 days, three of six animals): > 20% |
| B1 | Not reactive | Not reactive |  |
| B2 | Not reactive | Not reactive |  |
| B3 | Not reactive | Not reactive |  |
| B4 | Not reactive | Not reactive |  |
| B5 | Not reactive | Not reactive | blocking of SCF binding to cKIT (SCF binding to cKIT): partial blocking; antitumor activity (tumor volume) [3]: Neither the control non-specific IgG1 ADCs nor the unconjugated 9P3 were efficacious |
